Seven substances from publication PMC9436803 can be followed below.

What is called Kd is the concentration at which binding is half-saturated. A low value points to higher affinity.

Assay [1] concerns the target Human IgG1 Fc (residues 216–447) (human). Nature of the assay: SPR; Biacore T200; IgG1 Fc amine-coupled to a CM5 chip (1 μg/ml); CD16a 0.01-20.48 μM flowed at 10 μl/min; 20 mM MOPS, 100 mM sodium chloride, 1 μM bovine serum albumin, 0.05% P20, pH 7.4; dissociation constants from equilibrium responses; at least five measurements. For orientation: Surface plasmon resonance follows binding to a sensor surface in real time, without labels.

The target is the same in assay [2]. Kind of assay: SPR; Biacore T200; IgG1 Fc amine-coupled to a CM5 chip (0.33 μg/ml); CD16a 0.04-5.12 μM flowed at 60 μl/min, contact 30 s, dissociation 250 s; 20 mM MOPS, 100 mM sodium chloride, 0.05% P20, pH 7.4, no bovine serum albumin; two-state kinetic model.

“CD16a F158 S164A, lacking the N162 glycan (receptor)”: in assay [1], the Kd came to 1470 nM.

In assay [2], “CD16a V158 S164A with complex-type N-glycans, lacking the N162 glycan (receptor)” showed a Kd of 109 nM; a ka1 (two-state model, major event) of 1.4e+06 M⁻¹ s⁻¹; a ka2 (two-state model, minor event) of 0.0014 s⁻¹; a kd1 (two-state model, major event) of 0.18 s⁻¹. In assay [2], the kd2 (two-state model, minor event) was 0.0078 s⁻¹. Further, the Kd in assay [1] turned out to be 230 nM.

In assay [1], “Fc γ receptor IIIa/CD16a F158 allotype with oligomannose (Man5GlcNAc2) N-glycans (from UniProt P08637 17-254)” showed a Kd of 1070 nM.

“Fc γ receptor IIIa/CD16a F158 allotype with truncated (1)GlcNAc N-glycans (from UniProt P08637 17-254)”: in assay [2], the Kd worked out at 52 nM; the ka1 (two-state model, major event) stood at 1.1e+06 M⁻¹ s⁻¹; the ka2 (two-state model, minor event) was 0.0018 s⁻¹; the kd1 (two-state model, major event) worked out at 0.079 s⁻¹. This substance also yielded a kd2 (two-state model, minor event) in assay [2] of 0.005 s⁻¹. Besides, the Kd in assay [1] was 126 nM.

Consider “Fc γ receptor IIIa/CD16a V158 allotype with complex-type N-glycans”, for which, in assay [2], the Kd amounted to 76 nM; the ka1 (two-state model, major event) was 170000 M⁻¹ s⁻¹; the ka2 (two-state model, minor event) was determined as 0.0061 s⁻¹; the kd1 (two-state model, major event) was found to be 0.025 s⁻¹. For the same substance, the kd2 (two-state model, minor event) in assay [2] came to 0.0066 s⁻¹. This substance came in with a Kd in assay [1] of 270 nM.

In assay [2], “Fc γ receptor IIIa/CD16a V158 allotype with oligomannose (Man5GlcNAc2) N-glycans” displayed a Kd of 55 nM; a ka1 (two-state model, major event) of 710000 M⁻¹ s⁻¹; a ka2 (two-state model, minor event) of 0.0049 s⁻¹; a kd1 (two-state model, major event) of 0.071 s⁻¹. The same substance came in with a kd2 (two-state model, minor event) in assay [2] of 0.006 s⁻¹. For the same substance, the Kd in assay [1] stood at 86 nM.

In assay [2], “Fc γ receptor IIIa/CD16a V158 allotype with truncated (1)GlcNAc N-glycans” returned a Kd of 9.2 nM; a ka1 (two-state model, major event) of 2.5e+06 M⁻¹ s⁻¹; a ka2 (two-state model, minor event) of 0.0032 s⁻¹; a kd1 (two-state model, major event) of 0.04 s⁻¹. In assay [2], this substance gave a kd2 (two-state model, minor event) of 0.0047 s⁻¹. Also, the Kd in assay [1] worked out at 22 nM.
